Data reported in the DeepSol protein solubility set.

assay: soluble on expression in E. coli; label from the status in PepcDB or PDB records

Row | Sequence | soluble on expression in E. coli
1 | MGLEKVVLTGLGAGLIAVAARGQNPLATALKIEQNDEGETVVRDAVTIGKPAEQLYAVWRDLPGLPLLMTHLRSVEVLDDKRSRWTVEAPAPLGTVSWEAELTADEPGKRIAWRSLPGARIENSGEVLFRPAPGARGTEVVVRLTYRPPGGSAGAVIARMFNQEPSQQLRDDLMRFKREQELGLEHHHHHH | soluble
2 | MNITKIISKTFDSRLKQIDLYASQASEIQHRVLSRLVNQAAQTEWGKKYDYASIRSYEDFRNRLPIQTYEEIKPYVERLRAGEQNLLWPSEIRWFAKSSGTTNDKSKFLPVSKEALEDIHYRGGKDAAALYFRINPDSHFFSGKGLILGGSHSPNLNSNHSLVGDLSAILIQNVNPLINFIRVPSKKIALMSEWETKIEAIANSTIPVNVTSLSGVPSWMLVLIKRILEKTGKQTLEEVWPNLEVFFHGGVAFTPYREQYKQVIHSKMMHYVETYNASEGYFGTQNDLSDPAMLLMIDYGIFYEFVPLEEVDKENPRAYCLEEVELNKNYAMVISTSCGLWRYMIGDTVKFTNKNPYKFVITGRTKHFINAFGEELIVDNAEKGLAKACAETGAQVCEYSAAPVFMDEHAKCRHQWLIEFAKMPDSVEKFAAILDATLKEVNSDYEAKRWKDIALQPLEVIVARPGLFHDWLARKGKLGGQHKVPRLSNTREYIESMLVLNNELEHHHHHH | not soluble
3 | MSMLPTFGFTQEQVACVCEVLQQGGNIERLGRFLWSLPACEHLHKNESVLKAKAVVAFHRGNFRELYKILESHQFSPHNHAKLQQLWLKAHYIEAEKLRGRPLGAVGKYRVRRKFPLPRSIWDGEETSYCFKEKSRSVLREWYAHNPYPSPREKRELTEATGLTTTQVSNWFKNRRQRDRAAEAKERENNENSNSNSHNPLNGSGKSVLGSSEDEKTPSGTPDHSSSSPALLLSPPPPGLPSLHSLGHPPGPSAVPVPVPGGGGADPLQHHHGLQDSILNPMSANLVDLGS | soluble
4 | MGSDKIHHHHHHMSDEGRHKPTSAPNRVFMMKGMDKLRYQQDFLNIRPIFTAGEQEYLTGLSDRLPLSVLTGSVRNIEEIGIDFVYSSAKLEGNTYNQYDTQALLKLGQTAGGKLYSDAVMLINLRESYRHLLSGLDSPEPFDWLDFLKTTHSLISENLLEKGSGGVVRRDSVTISGTDYTPLSNPQSLDTELKWLLQEAPKIENPFDRAVYLHNNLAYLQYFKDCNKRTARNCMTLSLMRSGFFPCVFSPDSYPAYAEAVVAYYETGDYGLFKKYFISAYENTVNKYGPQPDMDIFRNFSL | not soluble
5 | MGSDKIHHHHHHMLYFQNAFSLRGTHDAIIVGIFEGHEPLVAELKQLDETLNGHLSTLVKQKQLKTEAGKITELYTFGLIETKWVLAVGLGKRSDASADTLRAGFAAVGERVKEKRMTNVTVVLPSFVSERVSEQEVARLFGESFTMGYSTIDDYKERTNLVDKSLNSVTVFHGHRPVETGIREGIAYGNGSVYAERLMSIPRTLLSPTELVTEAQALANRHGFDTETLEQKELEKLGMGGLLAASGPAENATMIVLKNKGKREEREVIGLIGAGGNGIFSPWMGGAAAVLGAMDIIGSLHSQKNVLAILPIVEQEQGQPKPMPGDVIRSYSGKTIEVDHIEAVGALLLADGITYAKELGVHSLVTVAPLAEELRSILGDKFTAAVTNDESWLKKMQEASLKSGEPIWTLPYYRPYKKRLQEESVADLRLTIGRFANCMATALFVGEFAENDPWVHLDIAGTVARARGIMVRTLAAFVLNNGERELR | not soluble
6 | MVIVINYKTYNESIGNRGLEIAKIAEKVSEESGITIGVAPQFVDLRMIVENVNIPVYAQHIDNINPGSHTGHILAEAIKDCGCKGTLINHSEKRMLLADIEAVINKCKNLGLETIVCTNNINTSKAVAALSPDCIAVEPPELIGTGIPVSKANPEVVEGTVRAVKEINKDVKVLCGAGISKGEDVKAALDLGAEGVLLASGVVKAKNVEEAIRELIKFI | soluble
7 | SLSDTLNSLQLGERPEGRTLLTASWVVGHKDGSHRLLKNGEVVFENGEILFVGHGFPGEVARRIDFGNALVSPGLIDLDALSDLDTTILGIDHHPGWAKGRVWPRSYVEAGPYEMYSAEELAFQKRFAFGQLLLNGITTAAPIASLFYRAWGETVAEFEAAADAAGELGLRVYLSPAFRSGGMVLEEPGRMFPVFDEERGFQGLKEAIAFIEKQSGRHGDLVRGMLAPDRVETSTLGLIERTDAAARELGCKFRLHMAQGVMEVDTVRKLHGSTAPVWLAKAGLLSERLIAPHATNATEEDLALYAENGVSIVHCPLVSSRGGSTLSSFSSCRKRGINIAMGTDTAPADMFMNLLVGLITCRINDGAPDQIRCADLFDAATLGGARALGRSDLGHLSSGARADIAVFDLDDAVMAPSVDPITTLVTGGSGKVTRAVFVDGRLSMRERQVAHIDMRRAREQAQAQFDRLIAKYPERSWANPPVSEIFPPSYQVEVAQHG | not soluble
8 | LSSLLKAANLARSTYYYQMATGQAEDRHGALKERIQHIYAQHKGRYGYRRITATLRRAGTLVNHKTVQRLMSALQLKSLVRPKKYRSYLGQVGRVAPNLLQREFEASKPNEKWVTDVTEFNVGGKKLYLSPVLDLYNGEIVAWQTSERPDYTLIREMLDKALRKLRPCETPMLHSDQGWPYQMAAYRRKLAARGLRQSMSRKGNCLDNAAMESFFGTLKSECFRLERFADIDQLRRAIAEYIRYYNHERIKIKLKGLSPVQYRTQPLAA | soluble
9 | MTFALGQRWISDTESDLGLGTVVAMDARTVTLMFAASEENRVYARNDAPVTRVTFNVGDVIDCQEGWSLKVEEVLEDEGLYTYFGTREDTQETAVVLREIFLSNQIRFNKPQDKLYAGQIDRMDNFVLRY | not soluble
10 | MGSDKIHHHHHHMTKREGGIKMAEKRRKRVVILGAAGRDFHNFNVFFRNNPEYEVVAFTATQIPDIEGRIYPPELAGELYPNGIPILPEDDLEKIIKEKDVDIVVFAYSDVSHEHVMHLASRAHSAGADFWLLGPKSTMIESKKPVVAVTAVRTGCGKSQTSRKVAQLLQEMGYKVAVIRHPMPYGDLRKQIVQRFASFEDLDRYECTIEEREEYEPYIERGMVVYAGVDYEKILREAEKEADIILWDGGNNDFPFYKPDLWIVVTDPHRPGHELTHHPGETNFRSADVIIINKIDTAYPENVQKIRENIEKVNPNAIVIEAASPIFVDKPELIKGKRVLVIEDGPTLTHGGMSYGAGYIAAKKFGAKEIVDPRPYAVGSIIETYKKYPHLSNILPAMGYGKKQIKELEETINRADADVVIMGTPVDLRRFMNLNKPAVRVKYELEEIGQPKLKDILEEWVKKCEKLKK | not soluble
11 | MSLETFTGIRYETAVERVANGGFTDLPRQIEWRKALAAFQSAPIFGHGWNSFAQQTFLINAEQHNIHDNLLSNLFTHSHNIVLQLLAEMEGHHHHHH | not soluble
12 | METFGVFHKEDDEQMDLPPGFRFHPTDEELITHYLHKKVLDLGFSAKAIGEVDLNKAEPWELPYKAKIGEKEWYFFCVRDRKYPTGLRTNRATQAGYWKATGKDKEIFRGKSLVGMKKTLVFYRGRAPKGQKTNWVMHEYRLDGKLSAHNLPKTAKNEWVICRVFHKTAGGKKIPISTLIRIGSYGTGSSLPPLTDSSPYNDKTKTEPVYVPCFSNQAETRGTILNCFSNPSLSSIQPDFLQMIPLYQPQSLNISESSNPVLTQEQSVLQAMMENNRRQNFKTLSISQETGVSNTDNSSVFEFGRKRFDHQEVPSPSSGPVDLEPFWNY | soluble
13 | MAKARRRRVRDTWKEKKWYVIKSPKLFGENEIGTTPSRDPDFLLKRRVEATMRELTGDFSKQYVKLKFQIDSVAGSEATTRFIGHQVTTDYVRSMIRRGTSRVDAPVIVETKDGYKLKVHPLAITIRRAKSSQQKYMRQSIEEHLREIASEKTFEELVEGIVTGKIASEIYHQAKKIYPLKRVEIIKSRVLEEPALEHHHHHH | soluble
14 | MPPLECDVLVIGSGASGLAAAVTAAHHGLTVVVAEKASQLGGTSAWSGGWLWIPRNPLAIAEGIVEADDAPERYLRAQTHTRELDPRQRAFLRHGPEMVAFFEQHTAVQFQCGSRMPDMREGDGSARGGRSLCALPYDGRRLGPWLHKLRPPLDIVSLAGMGIAGGADMAAFFNATRSPKAALHVGKRLLRHGRDLLLHRRGLHLVNGNALVARLLRSALDRGVTLLTEKAASRLLLCEERVNGALFADGQAIYARRGVVLACGGFPHDRQRISQLMPHAPDGDQHYSAAPRENSGDGLRLGEQAGGRVSAAGAHGGAWAPVSQVPRRNGHFGHFPHLIDRAKPGFIAVRRDGRRFVNEADCYHDFMNALFAATPQAEQPEAWLICDHAAQRRYGIGWAKPFPFPTRFYQRSGYLHSGATLAQLAQRCGIDAEQLQRTVEGFNHHAAQGEDPTFLRGASAYNRAQGDPQQVPNPSLRPLLKGPFHAVKLLPGSLGTFAGLDTDASARVLDHAGQPIPGLFAVGNDMHSVMGGYYPSGGITLGPGMTFGYLAGRALSAGCADHLEHHHHHH | not soluble
15 | MSLKITILAVGKLKEKYWKQAIAEYEKRLGPYTKIDIIEVPDEKAPENMSDKEIEQVKEKEGQRILAKIKPQSTVITLEIQGKMLSSEGLAQELNQRMTQGQSDFVFVIGGSNGLHKDVLQRSNYALSFSKMTFPHQMMRVVLIEQVYRAFKIMRGEAYHK | soluble
16 | MAEHDFETISSETLHTGAIFALRRDQVRMPGGGIVTREVVEHFGAVAIVAMDDNGNIPMVYQYRHTYGRRLWELPAGLLDVAGEPPHLTAARELREEVGLQASTWQVLVDLDTAPGFSDESVRVYLATGLREVGRPEAHHEEADMTMGWYPIAEAARRVLRGEIVNSIAIAGVLAVHAVTTGFAQPRPLDTEWIDRPTAFAARRAER | soluble
17 | MNNYDDLPCSIYFKKPTVQEFVDQPRVFEDSEVPAFQEVLQLPQERTKPPVPSTQPIVAAVEVAKKKSCLSAPKPRKEPPSHPALRQKTVAFGKTVNVSQTVEGTSRNSKKVLASTMSAQNTTTTEEQAAENWRDAMKTELQTIRTEIQEETARRQEELNAQNLVKMQELMSNFFQKITIPKQQAIEPVEKDKENFHESPRQSRQQKPASKIASAREVIKRDGVIPPEALTIIEQRLRSDPMFRQQIDNVLADAECDANRAAYSPPPPMSEVRYGSGVNPALMRETLTVERSIRYDNGLASIDSRQWTNERRDNRAPDSYRTYEPDQPCHSLYQKGQSISYYPSEAAGKTTARNNRTGYYVEDSSDHEEDVVVNKRGQNYHEQAVPETPAERERRIREKYARRK | not soluble
18 | GSTAAEKPKLHYFNARGRMESTRWLLAAAGVEFEEKFIKSAEDLDKLRNDGYLMFQQVPMVEIDGMKLVQTRAILNYIASKYNLYGKDIKERALIDMYIEGIADLGEMILLLPVCPPEEKDAKLALIKEKIKNRYFPAFEKVLKSHGQDYLVGNKLSRADIHLVELLYYVEELDSSLISSFPLLKALKTRISNLPTVKKFLQPGSPRKPPMDEKSLEEHRKIFRF | soluble
19 | MEKLRMNVQGRVQGVGFRYMTKMVADQLGVTGSVRNEDDGSVSITAIAPEDIMETFIKKIKDSPSPAGRVTYVDIQEDPLLEETEQFKVIQ | soluble
20 | MGSDKIHHHHHHMKLKNDELTVEFKPEGATISSIRDRDGVEYLWQGNPEYWGGQAPVLFPICGSLRNDGATFQVGEKTISGSMPRHGIVRKRTFDLVKHTENEIQFRILSDDEMLKQYPFPFELQLTYRLDGKRLETEYAIRYLGELDAMPFFIGGHPGFNCPLLEDEAFDDYYLEFELEEDCTIPESFPETGLLDFSKRQPMLSKTRILDLNYELFQHDALTFDNLKSRKVALKTKNHQKGLKVSFEDFPFLVVWTTTNKGPFIALEPWSGLSTSLTETDNFIDKTHVTYVEKGEVSRKAFTIEIC | not soluble
